Data taken from the DeepSol protein solubility set.

Assay: soluble on expression in E. coli; label from the status in PepcDB or PDB records

## GSHMSKDATKEISAPTDAKERSKAIETAMSQIEKAFGKGSIMKLGAESKLDVQVVSTGSLSLDLALGVGGIPRGRITEIYGPESGGKTTLALAIVAQAQKAGGTCAFIDAEHALDPVYARALGVNTDELLVSQPDNGEQALEIMELLVRSGAIDVVVVDSVAALTPRAEIEGDMGDSLPGLQARLMSQALRKLTAILSKTGTAAIFINQVREKIGVMYGNPETTTGGRALKFYASVRLDVRKIGQPTKVGNDAVANTVKIKTVKNKVAAPFKEVELALVYGKGFDQLSDLVGLAADMDIIKKAGSFYSYGDERIGQGKEKTIAYIAERPEMEQEIRDRVMAAIRAGNAGEAPALAPAPAAPEAAEA
  soluble on expression in E. coli: soluble

## MGSDKIHHHHHHMNTRDLDYFRALVDCQNYTMVAKQFAVSQPAVTQAIHRLEKEFAVKLVIQDRRHQQTNITRAGQLLYKNARQIQASLQLAHREIQSTLQTDIRFGLPPIIGTLYFPQIAEKLLQNGLLQQLKITETGSDELLRKLVHGEINIALLGSYLPFDLPTVRAVHLGARPFSIIVSPQNSLAKQAAVSFKNLGQAQFIGLDGKYVHPQAFRAYCDFAGVHPEVIYRTPDISWVKALVKANLGISLLVRDVVKADDGVVCLEIKDQLPVSFNISVVTRAGYLPTTDEQRFIDQLLKMKI
  soluble on expression in E. coli: not soluble

## MKISLGPLLYCWEKQQVIDFYQQVANSQIPLVYLGEAVCSRRRELKWGDYLELAKMLKSAGKDVVLSTLALIEAPSEYTELKRQVDNGEFMIEANDMAAVYLAKEHKQPFVCGASINNYNRASLDILQRLGMQRFVMPVELSKTWLSQVVDKKPSFEVEVLGHGYLPLAHSARCFTARHSQLAKDSCETVCRQYSKGLLAQTQEAQPLLRLNGIQTQSASCVDLRSEISAMVKIGVDVFRVSPSSLACIAKADALVEALNSGAMDAQYPLSDEHCNGYWFGEAGLKSLS
  soluble on expression in E. coli: soluble

## MQHECNTDYTIAKYIPYIKPKYVTQEGTTVLYVRYNYNRNKRTLISTGYNIKPEHWDAKRKWIKRACPHYEEIDACLIKITSKLGDILTYAKVNGIDPTVDFVLLELEKNREYDLRPNRVDMFDALERYIVEKAPSVSADQIKDYRTLRKHLTAFKEYSSQPVTFRNLNLTFYNEFMDYLFHKVVKPNGTVGLLTNSAGKIIRLLKGFVNYQIVKGIIPPIDLKNFKVVEEETDAIYLNEKELAAIYELDLSDDKQLEEIRDVFITGCFTGLRYSDLSTLSPEHIDLDNENINLKQRKVHKAVVIPMIDYVPEILKKYNYDLPKIPRYMFNERVKELGRKIKLSQKIEVVRRKGKEREKRVYEKWEMISSHTCRRSFCTNMYLSGFPAAELMRISGHKSPSAFMRYIKVDNQQAAKRLKELRAKLAR
  soluble on expression in E. coli: not soluble

## DFEIMAPVGSRESLAAAIQAGADSIYFGIESLNMRARSASTFTVNDLREIAQICDKHGIKSYLTINTIIYDEDIALMRTIVDAAKEAGISAVIAADVAVMAYCCEVGQEVHLSTQLNISNAGALKFYARFADVVVLARELNLKQVRVIYDTIQKEQIKGPNGELVRIEMFCHGALCMAVSGKCYLSLHEMNASANRGACMQICRRAYDVKDKESDIELEVDNKYIMSPKDLKTIHFMDEMIEAGVRVFKIEGRARGPEYVRTVVECYKEAICSYLEGTFTEEKKQAWDERLKTVFNRGFWNGYYLGQRLGEWSKNYGSEATERKVYVGKGIKYFSNIGVAEFLVEAAEMKVGDKLLITGPTTGAVFLTLDEARVDLKPVDVVRKGQHVSFKVPDKVRPSDKLYKLVSPEDLK
  soluble on expression in E. coli: not soluble

## MSLEFAMWAYPWDLLDEGPSEVERRLRDIGIDELNLATNYHTVQAFTPHSPERRTLFARASSYFEPGPEYGDLEPVPYEGMNGDWVADAATGLSDLTLNSWTVGCHNSRLGMANPEYTLESAHGDDLVFGLCPSQPAVQTYLSALVSDLSSRDEFARIELETFDYFYGTGFGWHHQKIHARLGVLGEFLLGLCFCPHCRKNAKAAGVDAERVRSTVADTIDDIVAGDVSHEHPPEEWLADHSTVAAYVDVRERTLASLYATLADAAGTTSLGYYVGAPEPGREWVVGADLQALSNHVDYYCLPAYESSSDAVIGAYNAVETVIDDVPLHIGLLPGHPAIDDEATVVDIVETLDSKGVPRLSFYNYGLLPEQSLEWVETAIETVSEGHHHHHH
  soluble on expression in E. coli: soluble

## MGLYDKYARLAGERLQFSDNGLTPFGTCIDEVYSATEGRIGNKKVILAGTNNYLGLTFNHDAISEGQAALAAQGTGTTGSRMANGSYAPHLALEKEIAEFFNRPTAIVFQPVIPLI
  soluble on expression in E. coli: not soluble
